Data on one molecule can be found in patent US20180134780A1 (Hoffmann-La Roche, published 2018).

The IC50 is the concentration that gives 50% inhibition.

The assay has as its target T1, Human angiopoietin-2 (ANG-2) (human, UniProt O15123 19-496, limits assumed).
T1 construct: Bought (R&D Systems Cat. No. 623-AN) or produced in house; also called ANGPT2; huAngiopoietin-2
T1 sequence: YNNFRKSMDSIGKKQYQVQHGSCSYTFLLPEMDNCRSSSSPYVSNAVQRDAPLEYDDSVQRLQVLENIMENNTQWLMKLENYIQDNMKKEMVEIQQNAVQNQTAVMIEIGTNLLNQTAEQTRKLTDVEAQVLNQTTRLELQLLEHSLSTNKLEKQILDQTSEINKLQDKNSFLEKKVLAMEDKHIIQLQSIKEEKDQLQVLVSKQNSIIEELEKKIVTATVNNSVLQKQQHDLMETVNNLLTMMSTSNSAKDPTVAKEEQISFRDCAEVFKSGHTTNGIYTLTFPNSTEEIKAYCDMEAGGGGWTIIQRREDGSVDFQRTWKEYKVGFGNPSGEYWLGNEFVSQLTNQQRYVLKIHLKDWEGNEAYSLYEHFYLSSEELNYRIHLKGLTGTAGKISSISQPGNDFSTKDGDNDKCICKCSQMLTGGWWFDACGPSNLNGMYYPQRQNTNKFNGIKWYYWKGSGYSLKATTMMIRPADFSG
In words: ANG2/Tie2 receptor interaction ELISA (Experiment A): antibody dilutions pre-incubated with 0.2 ug/ml huAngiopoietin-2, coated human Tie2, bound ANG-2 detected. Here is the method: Blocking of human ANG-2/human Tie2 interaction was shown by receptor interaction ELISA. 384-well Maxisorp plates (Nunc) were coated with 0.5 μg/ml human Tie2 (R&D Systems, UK, Cat. No. 313-TI or in house produced material) for 2 h at room temperature and blocked with PBS supplemented with 0.2% Tween-20 and 2% BSA (Roche Diagnostics GmbH, DE) for 1 h at room temperature under shaking. In the meantime, Dilutions of purified antibodies in PBS were incubated together with 0.2 μg/ml huAngiopoietin-1/2 (R&D Systems #923-AN/CF, R&D Systems, UK, Cat. No. 623-AN or in house produced material) for 1 hour at RT. After washing a mixture of 0.5 μg/ml biotinylated anti-Angiopoietin-1/2 clone (R&D Systems #BAF923, BAM0981 R&D Systems, UK) and 1:3000 diluted streptavidin HRP (Roche Diagnostics GmbH, DE, Cat. No. 11089153001) was added for 1 h. Thereafter the plates were washed 6 times with PBST. Plates were developed with freshly prepared ABTS reagent (Roche Diagnostics GmbH, DE, buffer #204 530 001, tablets #11 112 422 001) for 30 minutes at RT. Absorbance was measured at 405 nm.
Background: An ELISA detects its analyte on a solid surface through an enzyme-linked reagent.

B1: <ANG-2>Ang2i_LC06 (antibody, V domains shown)
VH: not shown
VL: QPGLTQPPSVSVAPGQTARITCGGNNIGSKSVHWYQQKPGQAPVLVVYDDSDRPSGIPERFSGSNSGNTATLTISRVEAGDEADYYCQVWDSSSDHYVFGTGTKVTVLG
notes: also called anti-ANG2 antibody
For B1, the IC50 amounted to 0.1 nM.
